# Measured values reported in article PMC9762252.
# Tested on: O=C(O)C(=O)/C=C/c1ccccc1O
# Test: purified protein
# Details: 50 mM Na2HPO4 pH 7.2, 22 °C
Substance,Km [µM],kcat [s⁻¹],kcat/Km [M⁻¹ s⁻¹]
NahE (His-tag NahE) (Pseudomonas putida; W128Y),7 ± 1,5,700000
NahE (His-tag NahE) (Pseudomonas putida; T65S),1.7 ± 0.3,0.0085,5000
NahE (His-tag NahE) (Pseudomonas putida; N157A),8 ± 1,0.13,16000
NahE (His-tag NahE) (Pseudomonas putida; T65V),21 ± 8,0.004,190
NahE (His-tag NahE) (Pseudomonas putida; N157L),60 ± 10,0.6,10000
NahE (His-tag NahE) (Pseudomonas putida; Y155F),4 ± 1,0.004,1000
NahE (His-tag NahE) (Pseudomonas putida; W128F),8 ± 2,8,1e+06
